± gives the standard error. Fewer inactive variants are shown than the library holds.
B1: glmS ribozyme (parent)
chain: AUAAAAGCGCCAGAACUACAGAAAUGUAGUUGACGAGGAGGAGGUUUAUCGAAUUUUCGGCGGAUGCCUCCAAA

Columns and labels:
Details in all cases: with glucosamine-6-phosphate
glucosamine-6-phosphate [1] = variants of: B1; assay: self-cleavage kobs at 160 uM GlcN6P; higher = faster cleavage; RNA array
How it was run: (§1)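 Glucosamine-6-phosphate in HEPES/KCl/Mg(OAc)2 buffer, at 40 μM to 10 mM, was flowed over barcoded ribozyme variants transcribed in situ by E. coli RNA polymerase on sequenced MiSeq chips. Tracking was through a hybridised Cy3 probe at 37 °C. kobs, kcat and KM came from exponential decay fits and weighted Michaelis–Menten fits of normalised per-tile medians.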

glucosamine-6-phosphate [2] = variants of: B1; assay: self-cleavage kobs at 640 uM GlcN6P; higher = faster cleavage; RNA array
How it was run: as §1

glucosamine-6-phosphate [3] = variants of: B1; assay: self-cleavage kobs at 10000 uM GlcN6P; higher = faster cleavage; RNA array
How it was run: as §1

glucosamine-6-phosphate [4] = variants of: B1; assay: self-cleavage kobs at 2500 uM GlcN6P; higher = faster cleavage; RNA array
How it was run: as §1

Row | Variant | self-cleavage kobs at 160 uM GlcN6P (glucosamine-6-phosphate [1]) [s⁻¹] | self-cleavage kobs at 640 uM GlcN6P (glucosamine-6-phosphate [2]) [s⁻¹] | self-cleavage kobs at 10000 uM GlcN6P (glucosamine-6-phosphate [3]) [s⁻¹] | self-cleavage kobs at 2500 uM GlcN6P (glucosamine-6-phosphate [4]) [s⁻¹]
1 | G13A G43A | < 1e-05 | < 1e-05 | < 1e-05 | –
2 | C8A C16U U31C G38A U56C | < 1e-05 | – | < 1e-05 | –
3 | G13C C34U | < 1e-05 | < 1e-05 | < 1e-05 | < 1e-05
4 | A12C C50A A53G G63U | < 1e-05 | – | – | –
5 | A15G C16A G60U | < 1e-05 | < 1e-05 | – | < 1e-05
6 | G26U U54A | 0.000887 ± 0.00025 | 0.00635 ± 0.002 | 0.0333 ± 0.0093 | 0.00265 ± 0.0013
7 | A14C C34A A48C C61G | < 1e-05 | – | < 1e-05 | < 1e-05
8 | C10U G40A | < 1e-05 | – | < 1e-05 | –
9 | C8A U57A | < 1e-05 | < 1e-05 | < 1e-05 | < 1e-05
10 | A12C A14U G44U U45A | < 1e-05 | – | – | –
11 | C11A G38A U45A | < 1e-05 | – | – | –
12 | G9U A14G U54A U56C G59A G63A U65G | < 1e-05 | < 1e-05 | – | –
13 | G7U G59A | < 1e-05 | < 1e-05 | < 1e-05 | < 1e-05
14 | A14C U54C U57A G60A C70U | < 1e-05 | < 1e-05 | – | < 1e-05
15 | A36U U46A | < 1e-05 | < 1e-05 | < 1e-05 | < 1e-05
16 | G41U G59A | < 1e-05 | < 1e-05 | – | < 1e-05
17 | U47C G62C | < 1e-05 | < 1e-05 | < 1e-05 | < 1e-05
18 | G41A G60C | < 1e-05 | < 1e-05 | < 1e-05 | –
19 | G59U U65A C67U | < 1e-05 | – | – | –
20 | G35A A48G G51C A64C | < 1e-05 | – | – | –
21 | G62U C68G | < 1e-05 | < 1e-05 | < 1e-05 | –
22 | A33U G35A | < 1e-05 | < 1e-05 | – | < 1e-05
23 | G38U G60C | < 1e-05 | < 1e-05 | – | –
24 | A36U U45A | < 1e-05 | < 1e-05 | – | –
25 | U45G A53C C71U | 0.000134 ± 5.7e-05 | 0.000323 ± 7e-05 | – | 0.000938 ± 0.00023
26 | C16U A52G C71G | 0.000103 ± 3.1e-05 | 5.85e-05 ± 1.3e-05 | – | 0.000175 ± 3.2e-05

Row | Variant | self-cleavage kobs at 160 uM GlcN6P (glucosamine-6-phosphate [1]) [s⁻¹] | self-cleavage kobs at 640 uM GlcN6P (glucosamine-6-phosphate [2]) [s⁻¹] | self-cleavage kobs at 10000 uM GlcN6P (glucosamine-6-phosphate [3]) [s⁻¹] | self-cleavage kobs at 2500 uM GlcN6P (glucosamine-6-phosphate [4]) [s⁻¹]
27 | A36C U45C | < 1e-05 | < 1e-05 | – | < 1e-05
28 | G9C G40A | < 1e-05 | < 1e-05 | < 1e-05 | < 1e-05
29 | C8U C61G | < 1e-05 | < 1e-05 | < 1e-05 | < 1e-05
30 | G35U U49G | < 1e-05 | < 1e-05 | < 1e-05 | < 1e-05
31 | U30C G59U | < 1e-05 | < 1e-05 | < 1e-05 | < 1e-05
32 | A6U U30G G44U A53C | < 1e-05 | < 1e-05 | – | < 1e-05
33 | G13U G44U | < 1e-05 | – | – | –
34 | C8U U56A | < 1e-05 | < 1e-05 | – | < 1e-05
35 | A14G C16U C34A G41A A52C | < 1e-05 | – | – | < 1e-05
36 | A6C C16U G40A U57C U69A | < 1e-05 | – | – | –
37 | A33C U45G U55C U57C A64U | < 1e-05 | < 1e-05 | – | < 1e-05
38 | G37A A39U U54C | 8.28e-05 ± 3.4e-05 | 0.00016 ± 1.9e-05 | – | 0.000423 ± 6.7e-05
39 | G7U C8G G51C | < 1e-05 | < 1e-05 | – | < 1e-05
40 | A36G G38C A42U G62A C67U C68A U69G | < 1e-05 | – | – | –
41 | A6C G44U | < 1e-05 | < 1e-05 | < 1e-05 | < 1e-05
42 | C8G C58A C67A | < 1e-05 | < 1e-05 | – | < 1e-05
43 | G32U C50A G59A | < 1e-05 | < 1e-05 | – | –
44 | U49C G62A | < 1e-05 | < 1e-05 | < 1e-05 | –
45 | C10A G32C G51U | < 1e-05 | – | – | –
46 | C34U U56C G66C | < 1e-05 | – | – | < 1e-05
47 | C8U A42U A64C U69C | < 1e-05 | < 1e-05 | – | –
48 | U57A G60A | < 1e-05 | – | – | –
49 | A33U U65G | < 1e-05 | < 1e-05 | – | –
50 | A12G G32A C67G C68U | 0.000534 ± 0.00025 | – | – | –
51 | A14U G43A G63U C68U | < 1e-05 | – | – | < 1e-05
52 | A6U G38U U47G | < 1e-05 | – | – | –

Row | Variant | self-cleavage kobs at 160 uM GlcN6P (glucosamine-6-phosphate [1]) [s⁻¹] | self-cleavage kobs at 640 uM GlcN6P (glucosamine-6-phosphate [2]) [s⁻¹] | self-cleavage kobs at 10000 uM GlcN6P (glucosamine-6-phosphate [3]) [s⁻¹] | self-cleavage kobs at 2500 uM GlcN6P (glucosamine-6-phosphate [4]) [s⁻¹]
53 | G43C C67U | < 1e-05 | – | – | < 1e-05
54 | U31G U45G U49A U56A | < 1e-05 | – | < 1e-05 | –
55 | A15G G38A G60U C70G | < 1e-05 | – | – | < 1e-05
56 | C11A U46G | < 1e-05 | < 1e-05 | 4.72e-05 ± 2.1e-05 | –
57 | C34U C67U | < 1e-05 | – | – | < 1e-05
58 | A6U A12G G66U | 8.08e-05 ± 2.3e-05 | – | – | –
59 | G9U A33U A53G G66U | < 1e-05 | – | – | –
60 | G43C U55G U56G C67G | < 1e-05 | – | – | –
61 | G35A U55C C70A | < 1e-05 | < 1e-05 | – | –
62 | G35U G41A A48G C58G | < 1e-05 | – | – | –
63 | A6G A12U A36C G43C | < 1e-05 | < 1e-05 | – | < 1e-05
64 | C8G A52G | < 1e-05 | < 1e-05 | < 1e-05 | < 1e-05
65 | A39C G60C | < 1e-05 | – | < 1e-05 | –
66 | A6G C50G U54C | 5.66e-05 ± 2e-05 | 5.17e-05 ± 2.4e-05 | – | –
67 | G29C G41U G63C C68A | < 1e-05 | < 1e-05 | – | < 1e-05
68 | A12G A14C G60C | < 1e-05 | < 1e-05 | – | –
69 | A36U A48G | < 1e-05 | < 1e-05 | < 1e-05 | –
70 | A14G A33G G60U | < 1e-05 | < 1e-05 | – | < 1e-05
71 | A15C G40A U45A C70G | < 1e-05 | < 1e-05 | – | –
72 | A15G G63A | < 1e-05 | < 1e-05 | < 1e-05 | < 1e-05
73 | A36C U49A C70U | 4.96e-05 ± 2e-05 | – | – | –
74 | G7U A53C | < 1e-05 | < 1e-05 | < 1e-05 | –
75 | A6U G40A A52C | < 1e-05 | < 1e-05 | – | < 1e-05
76 | C8A U31C A48U G51A G59C | < 1e-05 | < 1e-05 | – | < 1e-05
77 | A12U A15G C16G U30C A33U A48G G66A | < 1e-05 | < 1e-05 | – | –
78 | A48C U55A G66C | < 1e-05 | – | – | –

Row | Variant | self-cleavage kobs at 160 uM GlcN6P (glucosamine-6-phosphate [1]) [s⁻¹] | self-cleavage kobs at 640 uM GlcN6P (glucosamine-6-phosphate [2]) [s⁻¹] | self-cleavage kobs at 10000 uM GlcN6P (glucosamine-6-phosphate [3]) [s⁻¹] | self-cleavage kobs at 2500 uM GlcN6P (glucosamine-6-phosphate [4]) [s⁻¹]
79 | C11A G13A A39G | < 1e-05 | < 1e-05 | – | –
80 | G35C G60A C68A | < 1e-05 | < 1e-05 | – | –
81 | A39U U54C G62C | < 1e-05 | < 1e-05 | – | < 1e-05
82 | G7U C10G A33U C34U C67G C68A | 6.38e-05 ± 2.3e-05 | 3.4e-05 ± 1.7e-05 | – | –
83 | A15C U30A C67A | 0.000277 ± 6.8e-05 | 0.000357 ± 8.3e-05 | – | 0.0013 ± 0.0005
84 | A12C G40C C61G | < 1e-05 | < 1e-05 | < 1e-05 | < 1e-05
85 | C11A A39C C70G | < 1e-05 | < 1e-05 | – | < 1e-05
86 | G35C C50A G51U A52C | < 1e-05 | < 1e-05 | – | –
87 | C58A G59C | < 1e-05 | < 1e-05 | < 1e-05 | –
88 | G51U G62U A64C | < 1e-05 | – | – | –
89 | G43A U56A U57A C61U | < 1e-05 | – | – | –
90 | G7U C16G G43U C67G | < 1e-05 | < 1e-05 | – | –
91 | A14U G21A U56G | 0.00134 ± 0.00038 | 0.0043 ± 0.0012 | – | 0.00645 ± 0.0026
92 | A14C U47A C58G C67G U69C | 7.17e-05 ± 3.1e-05 | 9.78e-05 ± 3.1e-05 | – | –
93 | G38A G44U C58A | < 1e-05 | < 1e-05 | – | < 1e-05
94 | U30A U56G | 0.000202 ± 6.6e-05 | 0.00118 ± 0.00024 | – | 0.0019 ± 0.00059
95 | U31C A52U C71G | < 1e-05 | – | – | –
96 | G29U U30G A39U | 8.86e-05 ± 2.1e-05 | – | – | 0.0013 ± 0.00029
97 | A42G G62C | < 1e-05 | < 1e-05 | < 1e-05 | < 1e-05
98 | C16U C58G C68G | 0.000169 ± 4.4e-05 | 0.000132 ± 3.4e-05 | – | 7.79e-05 ± 1.5e-05
99 | G38C G44U C50U | < 1e-05 | < 1e-05 | – | –
100 | U55C C61U G63U | < 1e-05 | < 1e-05 | – | < 1e-05
101 | G35U A64U | < 1e-05 | < 1e-05 | < 1e-05 | < 1e-05

From the supplement of paper PMC7125110
